This series in a line: Investigation of pH of bivalirudin solutions (degradation at pH 2-6). It is filed as physicochemical. Conditions: 1 mg/ml aqueous solution. How it is done:
The degradation pathway of bivalirudin was investigated by preparing aqueous solutions at 1 mg/ml of bivalirudin at pH 2, 3, 4, 5 and 6 (Table 1). […] The excessive degradation observed was attributed to a change in pH during storage wherein the final pH of the bivalirudin compositions was about 7.

With “D-Phenylalanyl-L-Prolyl-L-Arginyl-L-Prolyl-Glycyl-Glycyl-Glycyl-Glycyl-L-Asparagyl-Glycyl-L-Aspartyl-L-Phenylalanyl-L-Glutamyl-L-Glutamyl-L-Isoleucyl-L-Prolyl-L-Glutamyl-L-Glutamyl-L-Tyrosyl-L-Leucine trifluoroacetate (salt) hydrate [bivalirudin]”, the “Asp^9-Bivalirudin” value (pH 2, 25° C./1 month) is recorded as 2.58 % AUC; the “Asp^9-Bivalirudin” value (pH 2, Initial) worked out at 0.45 % AUC; the “Asp^9-Bivalirudin” value (pH 3, 25° C./1 month) is 2.71 % AUC; the “Asp^9-Bivalirudin” value (pH 3, Initial) was found to be 0.76 % AUC; the “Asp^9-Bivalirudin” value (pH 4, 25° C./1 month) was found to be 1.26 % AUC; the “Asp^9-Bivalirudin” value (pH 4, Initial) stood at 0.59 % AUC. Also, the “Asp^9-Bivalirudin” value runs as follows: (pH 5, Initial) 0.84 % AUC; (pH 6, Initial) 1.19 % AUC. Moreover, the “Total Degradants” value by setting is: (pH 2, 25° C./1 month) 64.8 % AUC; (pH 2, Initial) 0.6 % AUC; (pH 3, 25° C./1 month) 37.7 % AUC; (pH 3, Initial) 0.9 % AUC; (pH 4, 25° C./1 month) 51.1 % AUC; (pH 4, Initial) 3.1 % AUC. Also, the “Total Degradants” value by setting is: (pH 5, Initial) 3.4 % AUC; (pH 6, Initial) 4.7 % AUC. Also, the “Asp^9-Bivalirudin / Total Degradants” value is “complete degradation” (pH 5, 25° C./1 month) and “complete degradation” (pH 6, 25° C./1 month).
